The RNAGym collection of RNA variant scans (doi:10.1073/pnas.2313332121)

B1: TPR t1 (parent)
chain: GACCAAUCUGCCCUCAGAGCUCGAGAACAUCUUCGGAUGCAGAGGAGGCAGGCUUCGGUGGCGCGAUAGCGCCAACGUCCUCAACCUCCAAUGCAUCCCACCACAUGAUGAUGCCUGAAGAGCCUUGGUUUUUUG

Variants of: B1
Experiment: polymerase ribozyme fitness, log enrichment relative to wild type (log ratio); higher = more active; in vitro selection for triplet polymerase activity
In short: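 Mutant libraries of each subunit of a heterodimeric triplet polymerase ribozyme were built by PCR and transcribed. Each library went through one round of in vitro selection in triplicate: annealing with biotinylated primer, partner subunit and triplets, frozen incubation at −7 °C, gel excision of extended constructs, streptavidin-bead capture and RT-PCR. Input and output libraries were Illumina-sequenced; only genotypes with ≥10 input reads and ≥1 read per output were kept. Fitness is log2(genotype enrichment/wild-type enrichment), using inverse-variance-weighted replicate averages.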

Row | Variant | polymerase ribozyme fitness (log ratio)
1 | GACCAAUCAGCCCUCAGAGCUCGAGAACAUCUUCGGAUGCAGAGGAGGCAGGCUUCGGUGGCGCGAUAGCGCCAACGUCCUCAACCUCCAAUGCAUCCCUCCACAUGAUGAUGCCUGAAGAGCCUUGGUUUUUUG [U9A A100U] | 0.21
2 | GACCAAUCAGCCCUCAGAGAUCGAGAACAUCUUCGGAUGCAGAGGAGGCAGGCUUCGGUGGCGCGAUAGCGCCAACGUCCUCAACCUCCAAUGCAUCCCACCACAUGAUGAUGCCUGAAGAGCCUUGGUUUUUUG [U9A C20A] | -2.35
3 | GACCAAUCAGCCGUCAGAGAUCGAGAACAUCUUCGGAUGCAGGGGAGGCAGGCUUCGGUGGCGCGAUAGCGCCAACGUCCUCAACCUCCAAUGCGUCCCACCACAUGAUGAUGCCUGAAGAGCCUUGGUUUUUUG [U9A C13G C20A A43G A95G] | -4.1
4 | GACCAAUCAGCCCUCAGAGCUCGAGAACAUCUUCGGAUGCAGAGGAGGCAGGCUUCGGUGGAGCGAUAGCGCCAACGUCCUCAAGCUCCAAUGCAUCCCACCACAUGAUGAUGCCUGAAGAGCCUUGGUUCUUUG [U9A C62A C85G U131C] | -1.16
5 | GACCAAUCAGCCCUCAGAGCUCGAGAACAUCUUCGGAUCCAGAGGAGGCAGGCUUCGGUGGCGCGAUAGCGCCAACGUCCUCAACCUCCAAUGCAUCCCACCACAUGAUGAUGCCUGAAGAGCCUUGGUUUUUUG [U9A G39C] | -0.517
6 | GACCAAUCAGCCCUCAGAGCUCGAGAACAUCUUCGGAUCCAGAGGAGGCAGGCUUCGGUGGAGCGAUAGCGCCAACGACCUCAACCGCCAAUGCAUCCCACCACAUGAUUAUGCCUGAAGAGCCUUGGUUUUUUG [U9A G39C C62A U78A U87G G110U] | -5.8
7 | GACCAAUCAGCCCUCAGAGCUCGAGAACAUCUUCGGAUGCAGAGGAGGCAGGCUUCGGUGGCGUGAUAGCGCCAACGUCCUCAACCUCCAAUGCAUCCCACCACAUGAUGAUGCCUAAAGAGCCUUGGUUUUUUG [U9A C64U G117A] | 0.77
8 | GACCAAUCAGCCCUCAGAGGUCGAGAACAUCUUCGGAUGCAGAGGAGGCAGGCUUCGGUGGCGCGAUAGCGCCAACGUCCUCAACCUCCAAUGCAGCCCACCACAUGAUGAUGCCUGAAGAGCUUUGGUUUUUUG [U9A C20G U96G C124U] | -3.29
9 | GACCAAUCAGCCCUCAGAGCUCGAGAACAUCUUCGGAUGCAGAGGAGGCAGGCUUCGGUGGCGCGAUAGCGCCAACGUCCUCAACCUCCUAUGCACCCCACCACAAGAUGAUGCCUGAAGAGCCUUGCUUUUUUG [U9A A90U U96C U106A G128C] | -5.11
10 | GACCAAUCAGCCCUCAGAGCUCGAGAACAUCUUCGGAUGCAGAGGAGGCAGGCUUUGGUGGCGCGAUAGCGCUAACGUCCUCAACCUCCAAUGCAUCCCACCACAUGAUGAUGCCUGAAGAGCCUUGGUUUUUUG [U9A C56U C73U] | 0.233
11 | GACCAAUCAGUCCUCAGAGCUCGAGAACAUCUUCGGAUGCAGAGGAGGCAGGCUUCGGUGGCGCGAUAGCGCCAACGUCCUCAACCUCCAAUGCAUCCCUCCACAUGAUGAUGCCUGAAGAGCCUUGGUUUUUUG [U9A C11U A100U] | -0.0164
12 | GACCAAUCAGCCCUCAGAGCUCGAGAACAUCUUCGGAUGCAGAGGAGGCAGGUUUCGGUGGCGCGAUAGCGCCAACGUCCUCAACCUCCAAUGCAUCCCACCACAUGAUGAUGCCUGAAGAGCCUUGGUUUUUUG [U9A C53U] | 0.789
13 | GACCAAUCAGCCGUCAGAGCUCGAGAACAUCUUCGGAUGCAGAGGGGGCAGGCUUCGGUGGCGCGAUAGCGCCAACGUCCUCAACCUCCAAUGCAUCCCACCACAUCAUGAUGCCUGAAGAGCCUUGGUUUUUUU [U9A C13G A46G G107C G135U] | -7.09
14 | GACCAAUCAGCCGUCAGAGCUCGAGCACAUCUUCGGAUGCAGAGGAGGCAGGCUUCGGUGGCCCGAUAGCGCCAACGUCCUCAACCUCCAAUGCAUCCCACCACAUGAUAAUGCCUGAAGAGCCUUGGUUUUUUG [U9A C13G A26C G63C G110A] | -5.86
15 | GACCAAUCAGCCCUCAGAGCUCGAGAACAUCUUCGGAUGCAGAGGAGGCAGGCUUCGGUGGCGCGAUAGCGCCAACGUCUUCAACCUCCAAUGCAUCCCAUCACAUGAUGUUGCCAGAAGAGCCUUGGUUUUUUG [U9A C80U C101U A111U U116A] | -4.4
16 | GACCAAUCAGCCCUCAGAGCUCGAGAACAUCUUCGGAUGCAGAGGAGGCAGGCUUUGGUGGCGCGAUAGCGCCAACGUCCUCAACCUCCAAUGCAUCCCACCACAUGAUGAUGCCUGAAGAGCCUUGGUUUUUUG [U9A C56U] | 0.248
17 | GACCAAUCAGCCCUCAGAGCUCGAGAACAUCUUCGGAUGCAGAGGAGGCAGGCUUAGGUGGCGCGAUAGCGCCAACGUCCUCAACCUCCAAUGCAUCCCACCACAUGAUGAUGCCUGAAGAGCCUUGGUUUUUUG [U9A C56A] | 0.00188
18 | GACCAAUCAGCCGUCAGAGCUCGAGAACAUCUUCAGAUGCAGAGGAGGCAGGCUUCGGUGGCGCGAUAGCGCCAACGUCCUCAACCUCCAAUGCAUCCCACCACAUGAUGAUGCCUGAAGAGCCUUGGUUUUUUG [U9A C13G G35A] | -3.79
19 | GACCAAUCAGCCCUCAGAGCUCGAGAACAUCUUCGGAUGCAGAGGAGGCGGGCUUCGGUGGCGCGAUAGCGCCAACGUCCUCAACCUGCAAUGCAUCCCACCACAUGUUGAUGCCUGAAGAGCCUUGGUUUUUUG [U9A A50G C88G A108U] | -4.75
20 | GACCAAUCAGCCCUCAGAGCUCGAGAACAUCUUCGGAUGCAGAGGAGGCUGGCUUCGGUGGCGCGAUAGCGCCAACGUCCUCAACCUCCAAUGCAUCCCACAACAUGAUGAUGCCUGAAGAGCCUUGGUUUUUUG [U9A A50U C102A] | -1.91
21 | GACCAAUCAGCCCUCAGAGCUCGAGAACAUCUUCGGAUGCAGAGGAGGCAGGCUUCGGUGGCGCGAUAGCGCCAACGUCCUCAUCCUCCAAUGCAUCCCACCACAUGAUGAUGCCUGAAGCGCCUUGGUUUUUUG [U9A A84U A121C] | 2.06
